These results are taken from patent publication US20220195015A1 (published 2022).

One may read the EC50 as the concentration giving half of the maximal effect. High values mean weaker potency, low ones greater potency.

Experiment [1] deals with SARS-CoV-2 spike receptor binding domain (RBD), wild type (SARS-CoV-2, UniProt P0DTC2 319-539). Put plainly: ELISA, RBD protein coated, mAb titrated. For orientation: In an ELISA, binding on a coated surface is turned into a signal by an enzyme label.
Experiment [2] shares this target. Put plainly: ELISA, RBD protein coated, mAb titrated. This is another data set of the same source.

B1: C524 (antibody, V domains shown)
VH: EVQLVESGGDLIQPGGSLRLSCAASGFSVSNSYMSWVRQAPGKGLEWVSIIYSGGSTYYADSVKGRFTISRDNSKNTLYLQMNSLRAEDTAVYFCAKTPRGDYDSSGTSAYWGQGTLVTVSS
VL: QLVLTQSPSASASLGASVNLTCTLSSGHSSYAIAWHQQQPEKGPRFLMKLSSDGSHNKGDGIPDRFSGSSSGAERFLTISSLQSEDEADYYCQTWGIGSDWVFGGGTKLTVL
In experiment [1], B1 registered a half-maximal effective concentration (EC50) of 5 ng/mL.

B2: C527 (antibody, V domains shown)
VH: QVQLVESGGGVVQPGRSLRLSCAASGFTFSSYGMHWVRQAPGKGLEWVALIGYDGTDKYYAENVKGRFTISRDNSKNTLFLQMNSLRGGDTAVYLCARDGIPFRYGMDVWGQGTTVTVSS
VL: DIQMTQSPSTLSASVGDRVTITCRASQSIDIWLAWYQQKPGKAPKFLIHKASTLESGVPSRFSGSGSGTEFTLTISSLQPDDFATYYCQHYHSYSGTFGQGTKVEIK
In turn, B2 displayed an EC50 in experiment [2] of 13.4 ng/mL.

B3: C576 (antibody, V domains shown)
VH: QVQLVQSGAEVKKPGSSVKVSCKASGGTFSIYAISWVRQAPGQGLEWMGGIIPILGTANYAQKFQGRVTITADESTSTAYMELSSLRSEDTAVYYCASFHVAYGDYIPFDYWGQGTLVTVSS
VL: not shown
B3 registered a concentration for a half-maximal effect (EC50) in experiment [2] of 5.29 ng/mL.

B4: C529 (antibody, V domains shown)
VH: EVQLLESGGGLVQPGGSLRLSCAASGFTFNNYAMNWVRQAPGRGLEWVSGISGSGANTYYADSVKGRFTISRDNPKNTLSLQMNSLRAEDTALYYCAKVLSPTYYDSWSGPDAFDFWGQGTMVTVSS
VL: DIQMTQSPSTLSASVGDRVTITCRASQTISPWLAWYQQKPGKAPNLLIYKASSLESGVPSRFSGSGSGTEFTLTISSLQPDDFATYYCQQYNSYSSWTFGQGTKVEIK
B4 displayed an EC50 in experiment [2] of 8 ng/mL.

B5: C537 (antibody, V domains shown)
VH: QLQLQESGPGLVKPSETLSLTCTVSGGAISSRNYHWGWIRQPPGKGLEWIGSIYYSGSTYYSPSLKSRVTISVDTSKNQFSLRLSSVTAADTAVYYCARLETSGWYTEDVFDIWGQGTMVTVSS
VL: DIQMTQSPSSLSASVGDRVTITCRASQSISSYLNWYQQKPGKAPKLLIYAASSLQSGVPSRFSGSGSGTDFTLTISSLLPEDFATYYCQRSYSAMYTFGQGTKLEIK
Take B5: in experiment [1], the EC50 stood at 41.9 ng/mL.

B6: C571 (antibody, V domains shown)
VH: EVQLVESGGGLIQPGGSLKLSCVVSGFTVSRNYISWVRQAPGKGLEWVSVLFAGGSTFYADSVKGRFAISRDNSNNTLFLQMNSLRVEDTAIYYCARGDGELIFDQWGQGTLVTVSS
VL: QSVLTQPPSVSGAPGQRVTIVCTGTSSNIGAGYDVHWYQQLPGRAPKVLVSGNNIRPSEVPDRFSGSRSGTSASLAITSLQPEDEAQYYCQSYDSNLYAVFGGGTKLTVL
In experiment [2], B6 came in with an EC50 of 4.62 ng/mL.

B7: C534 (antibody, V domains shown)
VH: QVQLVQSGAEVKKPGSSVRVSCKASGGTFSRNVISWVRQAPGQGLEWMGGIIPMFATANYAQKFQGRVTITADESSSTAYMELSSLRSEDTAVYYCAREDFILVSAPIRENSYYYYGMDVWGQGTTVTVSS
VL: EIVLTQSPGTLSLSPGERATLSCRASQSVSSNYLAWYQQKPGQAPRLLIYDASSRATGIPDRFSGSGSGTDFTLTISRLEPEDFAVYYCQQYGGSPRTFGQGTKVEIK
On to B7, for which it took 4.85 ng/mL to reach a half-maximal effect in experiment [1] (EC50).

B8: C526 (antibody, V domains shown)
VH: QVQLVQSGAEVKKPGASVKVSCKASGHTFTTYYLHWVRQAPGQGLEWMGRIDPSGGSTTYAQKFQGRVTMTRDTSTSTVYMELSSLRSEDTALYYCARGGYCGSTSCSPDDYFDYWGQGTLVTVSS
VL: SYELTQPPSVSVAPGKTARITCGGNNIGSKSVHWYQQKPGQAPVLVIYYDSDRPSGIPERFSGSNSGNTATLTISRVEAGDEADYYCQVWDSSSDHYYVFGTGTKVTVL
B8: the EC50 in experiment [2] amounted to 18.2 ng/mL.

B9: C556 (antibody, V domains shown)
VH: QVQLVQSGAEVKKPGASVKVSCKASGYTFTYYYMHWVRQAPGQGLEWMGIINPSGGSTSYAQKFQGRVTMTRDTSTSTVYMELSSLRSEDTAVYYCARPLLPGETGSLNRLDYWGQGTLVTVSS
VL: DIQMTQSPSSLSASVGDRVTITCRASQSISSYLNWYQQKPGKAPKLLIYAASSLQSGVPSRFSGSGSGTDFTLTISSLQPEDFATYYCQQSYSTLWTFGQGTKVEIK
On to B9, for which the EC50 in experiment [1] was found to be 1.36 ng/mL.

B10: C563 (antibody, V domains shown)
VH: EVQLVESGGGLVKPGGSLRLSCAASGFPFTNAWMSWVRQAPGKGLEWVGHIKDYTDGGTTDYAAPVKGKFTISRDDSKNTLYLHMNSLKTEDTAVYYCSTVGSYYYDSRGPTSDAFDIWGQGTLVTVSS
VL: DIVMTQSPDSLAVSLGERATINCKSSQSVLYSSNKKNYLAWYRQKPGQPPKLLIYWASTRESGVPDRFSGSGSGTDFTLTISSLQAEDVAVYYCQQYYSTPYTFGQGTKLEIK
For the molecule B10, the EC50 in experiment [1] came to 1.19 ng/mL.

B11: C528 (antibody, V domains shown)
VH: EVQLVESGGGLVQPGGSLRLSCAASGFTFRNYDMHWVRQVAGKGLEWVSAIGTSGDTYYPDSVKGRFTISRENAKNSVYLQMNNLRAGDTAVYFCVRDREISGWTGWYFDLWGRGTLVTVSS
VL: DIQMTQSPSSLSASVGDRVTITCRASQTIHNYLNWYQQIPGKAPRLLIYATNTLQSGVPSRFSGSGSGTDFTLTITGLQPEDFATYYCQQSYSTPPITFGQGTRLEIK
Turning to B11, the EC50 in experiment [2] was 5.66 ng/mL.

B12: C577 (antibody, V domains shown)
VH: QVQLVQSGAEVKKPGSSVKVSCKASGDTFSIYAFSWVRQAPGQGLQWMGAIIPLLGTTNYAQKFLGRVTITADESTSTTFMELSSLTSEDTAVYHCATFHVAYGDYIPFDSWGQGTLVIVSS
VL: not shown
Take B12: the EC50 in experiment [2] worked out at 1.32 ng/mL.

B13: C530 (antibody, V domains shown)
VH: QVQLVESGGGVAQPGRSLRLSCAASGFTFSRYGMHWVRQAPGKGLEWVAVIWHDGSDKYCADFVKGRFTISRDNSKNTLYMQMDSLRAEDTAVYYCARGGRPDHETGIAVLGEYYFDSWGQGTLVTVSS
VL: SYELTQPPSVSVSPGQTARITCSGDAFPLQYGYWYQQKPGQAPVLVIYKDKERPSGISERFSGSSSGTTVTLTISGVQAEDEADYYCQSADTNGVVFGGGTSLTVL
As for B13, in experiment [2], the EC50 worked out at 10.5 ng/mL.

B14: C533 (antibody, V domains shown)
VH: EVQLVESGGSLVKPGGSLRLSCVASGLTFNHAWMSWVRQAPGKGLEWVGRIKSKIDGGTTDYAAPVKGRFTISRDDSKSTQYLQMNSLKTEDTAVYYCTTDCFWRLGGTTCYEHDAFDVWGQGTMVTVSS
VL: DIQMTQSPSSLSASVGDRVTITCRASQAIATFLNWYQQKPGKAPKLLIYAASSLQSGVPSRFSGSGSGTDFTLTISNLQPEDFATYYCQQSYNSLHFGGGTKVEIK
Take B14: in experiment [1], a half-maximal effect (EC50) was put at 1.61 ng/mL.

B15: C523 (antibody, V domains shown)
VH: QVQLQESGPGLVKPSETLSLTCTVSGASISSHYWSWIRQPPGKGLEWIGYIHYIGSTNYNPSLKSRVTILLDTSKNQFSLRLRSVTAADTAVYYCARGWPYCGVDCYSGFDYWGQGTLVTVSS
VL: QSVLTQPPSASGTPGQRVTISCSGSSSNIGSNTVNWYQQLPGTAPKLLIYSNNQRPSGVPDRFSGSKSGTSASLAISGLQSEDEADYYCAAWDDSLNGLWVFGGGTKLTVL
The molecule B15 returned an EC50 in experiment [1] of 9.08 ng/mL. Against the preceding molecule, the EC50 is about 5.6-fold higher.

B16: C573 (antibody, V domains shown)
VH: QVQLQESGPGLVKPSGTLSLTCAVSGGSISTVNWWSWVRQPPGKGLEWIGEIHHSGNTNHNPSLRSRVTISVDKSKNQFSLKLRSVTAADTAVYYCARDGGRPGDAFDLWGQGTMVTVSS
VL: QSALTQPASVSGSPGQSITISCTGTSSDVGGYNYVSWYQQHPGKVPKVMIYDVSNRPSGISNRFSGSKSGNTASLTISGLQAEDEADYYCNSYRSNSTRVFGTGTKVTV
In turn, B16 registered an EC50 in experiment [2] of 2.2 ng/mL.

B17: C536 (antibody, V domains shown)
VH: QVQLVESGGGLVKPGRSLRLSCTVSGFTFGAYAMSWFRQAPGKGLEWVGFIRSKTYGGTTEYAASLKGRFTISRDDSKSIAFLQMNSLKTEDTAVYFCSRGGYYDGSPYYWNRPDAFDIWGLGTMVTVS
VL: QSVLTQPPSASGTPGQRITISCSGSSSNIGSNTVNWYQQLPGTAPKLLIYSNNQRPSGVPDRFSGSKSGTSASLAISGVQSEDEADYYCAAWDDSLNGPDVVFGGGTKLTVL
In experiment [1], B17 yielded a 50% effective concentration (EC50) of 1.88 ng/mL.

B18: C572 (antibody, V domains shown)
VH: EVQLVESGGGLIKPGRSLRLSCTASGFTFGDYAMTWFRQAPGKGLEWVGFIRSKAYGGTTGYAASVKYRFTISRDDSKSIAYLQMDSLKTEDTAVYYCTRWDGWSQHDYWGQGTLVTVSS
VL: DIVMTQSPLSLSVTPGEPASISCRSSQSLLHSNGNNYFDWYLQKPGQSPQLLIYLASNRASGVPDRFSGSGSGTDFTLKISRVEAEDVGVYYCMQVLQIPYTFGQGTKLEI
In the case of B18, the EC50 in experiment [2] was found to be 2.9 ng/mL.

B19: C531 (antibody, V domains shown)
VH: EVQLVESGGGLVQPGRSLRLSCVATGFTFDDFAMHWVRQAPGKGLEWVSGISWNGGIIGYVDSVKGRFTISRDNAKNSLYLQMNSLRPEDTALYYCVKGYRYYYDILTGYYNDAGAFDYWGQGTLVTVSS
VL: DIQSTQSPSFLSASVGDRVAITCRASQGISSYLAWYQQKPGKAPKLLIYPASTLQSGVPSGFSGSGSGTEFTLTISSLQPEDFATYYCQQLNDYPFTFGPGTKVDIK
Take B19: in experiment [2], the half-maximal effective concentration (EC50) was found to be 6.84 ng/mL.

B20: C535 (antibody, V domains shown)
VH: EVQLVESGGALVQPGRSLRLSCAASGFTFDDYAMHWVRQAPGKGLEWVSSISWNGVSIGYADSVRGRFTISRDNAKNSLYLQMNSLKIGDTAFYYCARGLDGSSSASPDSWGQGTLVTVSS
VL: DIQMTQSPSSVSASVGDRVTITCRASQGIGSWLAWYQQKPGKAPKLLIYLASSLQSGVPSRFSGSGSGTYFTLTISGLQPEDFATYYCQQGNSFPLTFGGGTKVEIK
B20 registered an EC50 in experiment [1] of 2.46 ng/mL.

B21: C525 (antibody, V domains shown)
VH: EVQLVESGGRLVQPGRSLRLSCAASGFTFDDYAIHWVRQAPGKGLEWVSGISWNSGSIGYADSVRGRFTISRDNAKNSLYLQMNSLRAEDTALYYCAKGLDSSSSASPDYWGQGTLVTVSS
VL: DIQMTQSPSSVSASVGDRVTITCRASQDISSWLAWYQQKPGKAPKLLIYLASSLQSGVPSRFSGSGSGTDFILTISSLQPEDFGTYYCQQGNSFPLTFGGGTKVEIK
Molecule B21 had a concentration for a half-maximal effect (EC50) in experiment [2] of 10.6 ng/mL.

B22: C538 (antibody, V domains shown)
VH: QLQLQESGPGLVKPSETLSLTCTVSGGSISSSSYYWAWIRQPPGKGLEWIGNIYYSGITYYSPSLKSRVTISVDTSKNQFSLKLRSVTAADTAVYYCARQHRYGSGSSELLWGQGTLVTVSS
VL: QSALTQPPSASGSPGQSVTISCTGTSSDVGSYNYVSWYQQHPGKAPKLMIYEVTKRPSGVPDRFSGSKSGNTASLTVSGLQADDEADYYCSSYAGSSNLIFGGGTKLTVL
In experiment [1], B22 showed an EC50 of 3.94 ng/mL.

B23: C574 (antibody, V domains shown)
VH: QVQLVQSGAEVKKPGASVKVSCKASGYTFTSYGFSWVRQAPGQGLEWLGWISAYNGNTNYAQKLQGRVTMTTDTSTSTAYMELRSLRSDDTAVYYCARAIAVAGTSGEFDYWGQGTLVTVSS
VL: not shown
In turn, B23 came in with an EC50 in experiment [2] of 8.12 ng/mL.
